Data from article PMC3325275, “Molecular Mechanism Underlying the Interaction of Typical Sac10b Family Proteins with DNA” (PLoS ONE, 2012).

Assays:
[1] = tested on: Mth10b I39R (Methanobacterium thermoautotrophicum ΔH); test: SPR; conditions: SPR (BIAcore 3000, SA chip): 20 mM Tris, 1 mM EDTA, 0.005% Tween20, pH 7.5, with 0, 0.1 or 0.3 M NaCl, 25°C
[2] = tested on: Mth10b T77R (Methanobacterium thermoautotrophicum ΔH); test: SPR; conditions: no NaCl; apparent KD; SPR (BIAcore 3000, SA chip): 20 mM Tris, 1 mM EDTA, 0.005% Tween20, pH 7.5, with 0, 0.1 or 0.3 M NaCl, 25°C
[3] = tested on: Mth10b N11K (Methanobacterium thermoautotrophicum ΔH); test: SPR; conditions: SPR (BIAcore 3000, SA chip): 20 mM Tris, 1 mM EDTA, 0.005% Tween20, pH 7.5, with 0, 0.1 or 0.3 M NaCl, 25°C
[4] = tested on: Mth10b N11KI39RT77R (Methanobacterium thermoautotrophicum ΔH); test: SPR; conditions: SPR (BIAcore 3000, SA chip): 20 mM Tris, 1 mM EDTA, 0.005% Tween20, pH 7.5, with 0, 0.1 or 0.3 M NaCl, 25°C
[5] = target: T1, Mth10b N11KI39RT77R N11K;I39R;T77R (Methanobacterium thermoautotrophicum ΔH) (UniProt O27527); test: SPR; conditions: SPR (BIAcore 3000, SA chip): 20 mM Tris, 1 mM EDTA, 0.005% Tween20, pH 7.5, with 0, 0.1 or 0.3 M NaCl, 25°C
T1 sequence: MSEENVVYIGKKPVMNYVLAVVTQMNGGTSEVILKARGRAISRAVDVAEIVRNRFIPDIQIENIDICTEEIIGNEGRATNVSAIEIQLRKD

[6] = target: T2, Mth10b T77R T77R (Methanobacterium thermoautotrophicum ΔH) (UniProt O27527); test: SPR; conditions: SPR (BIAcore 3000, SA chip): 20 mM Tris, 1 mM EDTA, 0.005% Tween20, pH 7.5, with 0, 0.1 or 0.3 M NaCl, 25°C
T2 sequence: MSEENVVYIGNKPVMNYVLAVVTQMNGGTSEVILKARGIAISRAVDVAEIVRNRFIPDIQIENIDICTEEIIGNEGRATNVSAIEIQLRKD

[7] = target: T3, Mth10b wild type (Methanobacterium thermoautotrophicum ΔH) (UniProt O27527); test: SPR; conditions: SPR (BIAcore 3000, SA chip): 20 mM Tris, 1 mM EDTA, 0.005% Tween20, pH 7.5, with 0, 0.1 or 0.3 M NaCl, 25°C
T3 sequence: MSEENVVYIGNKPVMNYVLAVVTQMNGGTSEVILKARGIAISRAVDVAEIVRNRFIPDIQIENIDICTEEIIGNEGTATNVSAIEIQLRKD

[8] = target: the molecule itself; test: crystal structure; purified Mth10b at ~10 mg/ml in 10 mM HEPES pH 7.2, 150 mM NaCl; hanging drop at 4°C over 0.1 M NaCl, 1.6 M (NH4)2SO4, 0.1 M HEPES pH 7.5; 2.2 Å; dimer formed about a crystallographic two-fold axis
[9] = 0.1 M NaCl, slight cooperativity

110 bp mth10b fragment
Kd [1, 9]: 6.5 µM
Kd ([1]; no NaCl, apparent KD): 0.26 µM
Kd [2]: 16 µM
Kd ([3]; 0.1 M NaCl, marked cooperativity): 30 µM
Kd ([3]; no NaCl, apparent KD): 2.1 µM
Kd [4, 9]: 0.7 µM
fold decrease in affinity (fold lower affinity than in 0.1 M NaCl) ([4]; 0.3 M NaCl, high cooperativity): 70

GTGATGTCAGAGGAGAATGTAGTATACATCGGAAACAAGCCTGTAATGAACTATGTTCTGGCCGTGGTTACTCAGATGAACGGTGGGACCAGTGAAGTGATCCTTAAAGC (double strand) [110 bp mth10b fragment]
Kd [5]: 0.7 µM
Kd [6]: 16 µM
binding [7]: no binding

B1: Mth10b from Methanobacterium thermoautotrophicum ΔH (natural protein, UniProt O27527 1-91, looked up)
chain: MSEENVVYIGNKPVMNYVLAVVTQMNGGTSEVILKARGIAISRAVDVAEIVRNRFIPDIQIENIDICTEEIIGNEGTATNVSAIEIQLRKD
notes: Mth10b, atypical Sac10b (Alba) family member of Methanobacterium thermoautotrophicum ΔH, gene mth10b (MTH1483); 91 residues in total, C-terminal residue Asp91; expressed from pET11a-mth10b; the structure model covers 86 of the 91 residues; also called wild type Mth10b; source: E. coli BL21 (DE3), purified
stoichiometry N [8]: 2
